The target of the series is T1, His6-Sll0649 (OmpR family response regulator) (Synechocystis sp. PCC 6803) (UniProt P72948).
T1 sequence: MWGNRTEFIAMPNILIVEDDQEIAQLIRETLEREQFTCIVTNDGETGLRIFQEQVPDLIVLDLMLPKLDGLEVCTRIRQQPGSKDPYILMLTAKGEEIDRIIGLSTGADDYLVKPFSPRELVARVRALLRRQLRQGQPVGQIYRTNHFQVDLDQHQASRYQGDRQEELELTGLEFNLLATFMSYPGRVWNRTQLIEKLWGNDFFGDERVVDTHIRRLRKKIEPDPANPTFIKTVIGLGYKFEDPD
The experiment in a line: EMSA. Conditions: EMSA: 20 mM Tris-base pH 7.9, 1 mM DTT, 10 mM MgCl2, 0.2 mg/mL BSA, 5% glycerol, 1 mg/mL poly(dI-dC), about 10 ng probe, 20 min at 25 C, 6% native PAGE. Background: Mobility shift assays separate free from complexed probe on a gel.

As to “AGCCAGTGGCGATAAGTCAGATCCTAGACCCCGACTTTTTTCCAAAATCAGAATAAATACAAAAAAAAGCCCTCTAAAACAATGACCTTGTCCTGAAAAACTGACACAAAAATTTCATACCGTCGTCATAGCCCTGTCATACTCGTCCCCTACATTAATAAATGTCAGCCCAAGCCGTTTCTTATCGCCACTGGCT (double strand) [Pslr1204 EMSA probe]”, the binding entry is “no binding”.
